# Data as given in US20240101687A1.
# Residue numbers refer to the chain shown, from its start.
# B1: Hu3A9-1564 (bispecific antibody, part only; not given: Hu3A9 heavy and light chains, part only)
# heavy, part: GGGGSGGGGSGGGGSQSVLTQPPSASGTPGQRVTISCTGSSSNIGSNDVSWYQQLPGTAPKLLIYANSNRPSGVPDRFSGSKSGTSASLAISGLRSEDEADYYCGAWDDSLNGYVFGCGTKLTVLGGGGSGGGGSGGGGSGGGGSEVQLLESGGGLVQPGGSLRLSCAASGFTFSSYDMSWVRQAPGKCLEWVSAISYDNGNTYYADSVKGRFTISRDNSKNTLYLQMNSLRAEDTAVYYCAKGVLTTLMNWFDYWGQGTLVTVSS
# B2: hu3A9 × 1564_F06 (bispecific antibody, part only; not given: hu3A9 heavy and light chains, part only)
# heavy, part: B1 heavy, part with A106T, D108A, D109G
# B3: Hu3A9-C04 (bispecific antibody, part only; not given: Hu3A9 heavy and light chains, part only)
# heavy, part: GGGGSGGGGSGGGGSQSVLTQPPSASGTPGQRVTISCTGSSSNIGSNDVSWYQQLPGTAPKLLIYANSNRPSGVPDRFSGSKSGTSASLAISGLRSEDEADYYCGAWEQWLNGYVFGCGTKLTVLGGGGSGGGGSGGGGSGGGGSEVQLLESGGGLVQPGGSLRLSCAASGFTFSSYDMSWVRQAPGKLEWVSAISYDNGNTYYADSVKGRFTISRDNSKNTLYLQMNSLRAEDTAVYYCAKGVLTTLMNWFDYWGQGTLVTVSS
# B4: Hu3A9-B10 (bispecific antibody, part only; not given: Hu3A9 heavy and light chains, part only)
# heavy, part: B1 heavy, part with P75S, A106S, D109V, C118G, C189G
# B5: Hu3A9-B01 (bispecific antibody, part only; not given: Hu3A9 heavy and light chains, part only)
# heavy, part: B1 heavy, part with P75S, C118G, C189G, Y198W, N200K, G201A, N202Q, T203P
# B6: Hu3A9-A02 (bispecific antibody, part only; not given: Hu3A9 heavy and light chains, part only)
# heavy, part: B1 heavy, part with P75S, D109T, S110T, C118G, C189G
# B7: Hu3A9-E09 (bispecific antibody, part only; not given: Hu3A9 heavy and light chains, part only)
# heavy, part: B1 heavy, part with P75S, C118G, C189G, Y198W, D199G, N200Q, N202K
# Target: human IGF1R on cells (human) (UniProt P08069)
# Assay: FACS on MCF-7 cells, 10 ug/mL (2nd Ab only: 2.86)
row,"GeoMean, Internalization at 37° C.",Binder
1,7.72,B1
2,19.8,B2
3,7.23,B3

# Target: human IGF1R on cells (human) (UniProt P08069)
# Assay: FACS on MCF-7 cells (2nd Ab only: 2.92)
row,GEOmean,Binder
1,3.88,B3

# Target: human IGF1R extracellular domain, His-tagged (human) (UniProt P08069)
# Assay: ELISA on ECD of IGF1R
row,EC50,Binder
1,0.144 nM,B1
2,0.156 nM,B4
3,0.145 nM,B5
4,0.13 nM,B6
5,0.159 nM,B7
6,0.107 nM,B3
